Reference: patent US20040076637A1, “HIV-derived HR1 peptides modified to form stable trimers, and their use in therapy to inhibit transmission of human immunodeficiency virus” (priority 2002, published 2004)

Legend:
[1] = Oligomerization state by sedimentation equilibrium (analytical ultracentrifuge); type: physicochemical; conditions: in solution, 4° C.
Description: Oligomerization state was assessed by using methods standard in the art for performing sedimentation equilibrium experiments and for analysis of the resultant data. In that regard, sedimentation equilibrium experiments were performed over a concentration range of synthetic peptide (1 μM to […]) as follows. Briefly, six-channel cells (12 mm optical path length) were used with an An-60 Ti rotor operated at 13,500 rpm, 18,000 rpm, 22,000 rpm, and 35,000 rpm) in an analytical ultracentrifuge at 4° C. The cell radii were scanned using 0.001 cm steps with 10 averages/scan at 3 different wavelengths (235 nm, 240 nm, 280 nm). Data obtained with solutions containing synthetic peptide was analyzed using a single species model to determine a weight-averaged molecular weight (MW). Diagnostic plots of MW/MW0 vs. rpm/rpm0 and MW vs. radial concentration were used to test for sample homogeneity. When systemic residuals or a MW higher than monomer molecular weight indicated the presence of self-association, associative models were investigated. The suitability of a model (goodness of fit) was judged by the trends observed in the residuals.

[2] = Helicity by circular dichroism; type: physicochemical; conditions: at 10 μM, 25° C.
Description: (§1) Helicity was assessed by circular dichroism (“CD”) as follows. Briefly, CD spectra were obtained using a spectrometer equipped with a thermoelectric temperature controller. The spectra was obtained at 25° C. with 0.5 nanometer (nm) steps from 200 to 260 nm, with a 1.5 nm bandwith, and a typical averaging time of 4 seconds/step. After the cell/buffer blank was subtracted, spectra were smoothed using a third-order least-squares polynomial fit with a conservative window size to give random residuals. Raw ellipticity values were converted to mean residue ellipticity using standard methods, and plotted was the wavelength (from 200 to 260 nm) versus [θ]×10^−3 (degrees cm^2/dmol). Percent helicity values were then calculated using standard methods. Assessment of thermal stability was performed by monitoring the change in CD signal at 222 nm as temperature was raised in 2° C. steps, with 1 minute equilibration times. The thermal stability for each sample (e.g., synthetic peptide) was represented by the transition temperature (Tm) determined by the derivative method.

[3] = Thermal stability (Tm) by CD signal at 222 nm; type: physicochemical; conditions: at 10 μM
Description: as §1

[4] = test system: HR2 peptide (SEQ ID NO:33) derived from the HR2 region of HIV-1 gp41; assay: HR2 peptide binding, fluorescence polarization assay; conditions: ability to complex with HR2 peptide denoted as yes
Source text: These include a protein chip assay (using Biacore analysis) in which surface plasmon resonance is used to detect the binding, and kinetics thereof, between a synthetic peptide and an HR2 peptide; and a fluorescence polarization assay. In the fluorescence polarization assay, a detectable moiety comprising a fluorescent dye (e.g., rhodamine and/or fluorescein) was used to label HR2 peptide, and the assay was then allowed to proceed under sufficient conditions and for a sufficient period of time for labeled peptide to bind to HR1 peptide, or synthetic peptide (or trimer formed therefrom).

HIV IIIB = type: cell-based, HIV-1; conditions: for Antiviral activity against HIV IIIB IC50: 50% reduction in infectious virus titer; for Antiviral activity against HIV IIIB IC90: 90% reduction in infectious titer
HIV infection of T cells = conditions: cited from earlier work
[5] = at concentrations of 5 μM or less; cited from earlier work
[6] = molecular target: HR2 peptide having the amino acid sequence of SEQ ID NO:33 (HIV-1); assay: surface plasmon resonance (Biacore protein chip assay)

Molecule	Oligomerization [1]	Helicity [2]	Stability Tm [3]	HR2 peptide binding [4]	Antiviral activity against HIV IIIB IC50 (HIV IIIB)	Antiviral activity against HIV IIIB IC90 (HIV IIIB)	50% effective concentration (EC50), blocked infection of T cells (HIV infection of T cells)	Oligomerization state in solution [5]	Kd [6]
SEQ ID NO: 38: Same as SEQ ID NO:32 except substitutions at 27, 34, 41, 48 and 23, 30, 44; Asp and Gln added to C-terminus (QARQLLSGIVQQQNNLLRAIEATQHAVQALVWGVKQLQARVLALERYIKDQ)	Trimer*	79%	90 °C	Yes	0.18 µg/mL	0.88 µg/mL	–	–	–
SEQ ID NO: 39: Same as SEQ ID NO:32 except substitutions at 6, 20, 41, 48 and 9, 16, 44; Asp and Gln added to C-terminus (QARQLVSGLVQQQNNILRALEAQQHALQATVWGIKQLQARVLALERYIKDQ)	Trimer*	63%	68 °C	Yes	0.26 µg/mL	1.20 µg/mL	–	–	–
DP107: HR1 peptide, also known as T-21, a synthetic peptide having the amino acid sequence of SEQ ID NO:2 (NNLLRAIEAQQHLLQLTVWGIKQLQARILAVERYLKDQ)	–	–	–	–	–	–	1 µg/mL	monomer/dimer/tetramer equilibrium	–
QARQLVSGLVQQQNNILRALEATQHAVQALVWGVKQLQARVLALERYIK (modifications not checked) [synthetic peptide having the amino acid sequence of SEQ ID NO:35]	–	–	–	–	–	–	–	–	21.8 nM
